Reference: patent US20250066503A1, “CELL INJURY INDUCING THERAPEUTIC DRUG FOR USE IN CANCER THERAPY” (CHUGAI SEIYAKU KABUSHIKI KAISHA, priority 2016, published 2025)

Biological target: T1, soluble human CD3 epsilon chain (human, UniProt P07766 23-126)
T1 construct: also called CD3ε
Test: SPR

T1 sequence (P07766 23-126 limits assumed): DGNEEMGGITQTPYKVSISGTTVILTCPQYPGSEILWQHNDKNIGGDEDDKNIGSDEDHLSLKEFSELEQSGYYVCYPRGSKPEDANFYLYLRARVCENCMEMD

Kd	Binder
9.48 nM	CE115HA252-E22Hh//-Hi-Kn010G3/L0000-k0 (antibody, V domains shown, one-arm) VH: QVQLVESGGGVVQPGRSLRLSCAASGFTFSNAWMHWVRQAPGKGLEWVAQIKAKSNNYKKYYAESVKGRFTISRDDSKNSLYLQMNSLKTEDTAVYYCRYVHYYYYYGVDAWGQGTTVTVSS VL: DIVMTQSPLSLPVTPGEPASISCRSSQSLVHSNRNTYLHWYQQKPGQAPRLLIYKVSNRFSGVPDRFSGSGSGTDFTLKISRVEAEDVGVYYCGQGTQVPYTFGQGTKLEIKR
37.3 nM	TR01H010-E22Hh/none-Hi-Kn010G3/L0000-k0 (antibody, V domains shown, one-arm) VH: QVQLVESGGGLVQPGRSLRLSCAASGFTFSNAWMHWVRQAPGKGLEWVAQIKAKSNNYATYYAESVKGRFTISRADSKNSIYLQMNSLKTEDTAVYYCRYVHYSAYYGVDIWGQGTTVTVSS VL: DIVMTQSPLSLPVTPGEPASISCRSSQSLVHSNRNTYLHWYQQKPGQAPRLLIYKVSNRFSGVPDRFSGSGSGTDFTLKISRVEAEDVGVYYCGQGTQVPYTFGQGTKLEIKR
31.5 nM	TR01H009-E22Hh/none-Hi-Kn010G3/L0000-k0 (antibody, V domains shown, one-arm) VH: QVQLVESGGGLVQPGRSLRLSCAASGFTFSNAWMHWVRQAPGKGLEWVAQIKAKSNNYATYYAPSVKGRFTISRADSKNSIYLQMNSLKTEDTAVYYCRYVHYGAYYGVDIWGQGTTVTVSS VL: DIVMTQSPLSLPVTPGEPASISCRSSQSLVHSNRNTYLHWYQQKPGQAPRLLIYKVSNRFSGVPDRFSGSGSGTDFTLKISRVEAEDVGVYYCGQGTQVPYTFGQGTKLEIKR
23 nM	TR01H006-E22Hh/none-Hi-Kn010G3/L0000-k0 (antibody, V domains shown, one-arm) VH: QVQLVESGGGLVQPGRSLRLSCAASGFTFSNAWMHWVRQAPGKGLEWVAQIKAKSQNYATYYAESVKGRFTISRADSKNSIYLQMNSLKTEDTAVYYCRYVHYGAYYGVDIWGQGTTVTVSS VL: DIVMTQSPLSLPVTPGEPASISCRSSQSLVHSNRNTYLHWYQQKPGQAPRLLIYKVSNRFSGVPDRFSGSGSGTDFTLKISRVEAEDVGVYYCGQGTQVPYTFGQGTKLEIKR
42.2 nM	TR01H008-E22Hh/none-Hi-Kn010G3/L0000-k0 (antibody, V domains shown, one-arm) VH: QVQLVESGGGLVQPGRSLRLSCAASGFTFSNAWMHWVRQAPGKGLEWVAQIKGKSNNYATYYAESVKGRFTISRADSKNSIYLQMNSLKTEDTAVYYCRYVHYGAYYGVDIWGQGTTVTVSS VL: DIVMTQSPLSLPVTPGEPASISCRSSQSLVHSNRNTYLHWYQQKPGQAPRLLIYKVSNRFSGVPDRFSGSGSGTDFTLKISRVEAEDVGVYYCGQGTQVPYTFGQGTKLEIKR
135 nM	TR01H004-E22Hh//-Hi-Kn010G3/L0000-k0 (antibody, V domains shown, one-arm; also called TR01H004-E22Hh//-Hi-Kn010G3/10000-ko) VH: QVQLVESGGGVVQPGRSLRLSCAASGFTFSNAWMHWVRQAPGKGLEWVAQIKAKSNNYATYYAESVKGRFTISRDDSKNSLYLQMNSLKTEDTAVYYCRRVHYYYYYGVDAWGQGTTVTVSS VL: DIVMTQSPLSLPVTPGEPASISCRSSQSLVHSNRNTYLHWYQQKPGQAPRLLIYKVSNRFSGVPDRFSGSGSGTDFTLKISRVEAEDVGVYYCGQGTQVPYTFGQGTKLEIKR
21.7 nM	TR01H007-E22Hh/none-Hi-Kn010G3/L0000-k0 (antibody, V domains shown, one-arm) VH: QVQLVESGGGLVQPGRSLRLSCAASGFTFSNAWMHWVRQAPGKGLEWVAQIKSKSNNYATYYAESVKGRFTISRADSKNSIYLQMNSLKTEDTAVYYCRYVHYGAYYGVDIWGQGTTVTVSS VL: DIVMTQSPLSLPVTPGEPASISCRSSQSLVHSNRNTYLHWYQQKPGQAPRLLIYKVSNRFSGVPDRFSGSGSGTDFTLKISRVEAEDVGVYYCGQGTQVPYTFGQGTKLEIKR
38.7 nM	TR01H014-E22Hh/none-Hi-Kn010G3/L0000-k0 (antibody, V domains shown, one-arm) VH: QVQLVESGGGLVQPGRSLRLSCAASGFTFSNAWMHWVRQAPGKGLEWVAQIKGKSNNYATYYAPSVKGRFTISRADSKNSIYLQMNSLKTEDTAVYYCRYVHYGAYYGVDIWGQGTTVTVSS VL: DIVMTQSPLSLPVTPGEPASISCRSSQSLVHSNRNTYLHWYQQKPGQAPRLLIYKVSNRFSGVPDRFSGSGSGTDFTLKISRVEAEDVGVYYCGQGTQVPYTFGQGTKLEIKR
37.1 nM	TR01H011-E22Hh/none-Hi-Kn010G3/L0000-k0 (antibody, V domains shown, one-arm) VH: QVQLVESGGGLVQPGRSLRLSCAASGFTFSNAWMHWVRQAPGKGLEWVAQIKAKSNNYATYYAESVKGRFTISRADSKNSIYLQMNSLKTEDTAVYYCRYVHYGASYGVDIWGQGTTVTVSS VL: DIVMTQSPLSLPVTPGEPASISCRSSQSLVHSNRNTYLHWYQQKPGQAPRLLIYKVSNRFSGVPDRFSGSGSGTDFTLKISRVEAEDVGVYYCGQGTQVPYTFGQGTKLEIKR
40.3 nM	TR01H003-E22Hh//-Hi-Kn010G3/L0000-k0 (antibody, V domains shown, one-arm) VH: QVQLVESGGGVVQPGRSLRLSCAASGFTFSNAWMHWVRQAPGKGLEWVAQIKAKSNNYATYYAESVKGRFTISRDDSKNSLYLQMNSLKTEDTAVYYCRRVHYGAYYGVDAWGQGTTVTVSS VL: DIVMTQSPLSLPVTPGEPASISCRSSQSLVHSNRNTYLHWYQQKPGQAPRLLIYKVSNRFSGVPDRFSGSGSGTDFTLKISRVEAEDVGVYYCGQGTQVPYTFGQGTKLEIKR
35 nM	TR01H017-E22Hh/none-Hi-Kn010G3/L0000-k0 (antibody, V domains shown, one-arm) VH: QVQLVESGGGLVQPGGSLRLSCAASGFTFSNAWMHWVRQAPGKGLEWVAQIKAKSNNYATYYAESVKGRFTISRADSKNSIYLQMNSLKTEDTAVYYCRYVHYGAYYGVDIWGQGTTVTVSS VL: DIVMTQSPLSLPVTPGEPASISCRSSQSLVHSNRNTYLHWYQQKPGQAPRLLIYKVSNRFSGVPDRFSGSGSGTDFTLKISRVEAEDVGVYYCGQGTQVPYTFGQGTKLEIKR
7.94 nM	TR01H012-E22Hh/none-Hi-Kn010G3/L0000-k0 (antibody, V domains shown, one-arm) VH: QVQLVESGGGLVQPGRSLRLSCAASGFTFSNAWMHWVRQAPGKGLEWVAQIKAKSNNYATYYAESVKGRFTISRADSKNSIYLQMNSLKTEDTAVYYCRYVHYYYSYGVDIWGQGTTVTVSS VL: DIVMTQSPLSLPVTPGEPASISCRSSQSLVHSNRNTYLHWYQQKPGQAPRLLIYKVSNRFSGVPDRFSGSGSGTDFTLKISRVEAEDVGVYYCGQGTQVPYTFGQGTKLEIKR
69.3 nM	TR01H018-E22Hh/none-Hi-Kn010G3/L0000-k0 (antibody, one-arm) VH: QVQLVESGGGLVQPGGSLRLSCAASGFTFSNAWMHWVRQAPGKGLEWVAQIKGKSNNYATYYAESVKGRFTISRADSKNSIYLQMNSLKTEDTAVYYCRYVHYSASYGVDIWGQGTTVTVSS light: DIVMTQSPLSLPVTPGEPASISCRSSQSLVHSNRNTYLHWYQQKPGQAPRLLIYKVSNRFSGVPDRFSGSGSGTDFTLKISRVEAEDVGVYYCGQGTQVPYTFGQGTKLEIKRTVAAPSVFIFPPSDEQLKSGTASVVCLLNNFYPREAKVQWKVDNALQSGNSQESVTEQDSKDSTYSLSSTLTLSKADYEKHKVYACEVTHQGLSSPVTKSFNRGEC
49.4 nM	TR01H013-E22Hh/none-Hi-Kn010G3/L0000-k0 (antibody, V domains shown, one-arm) VH: QVQLVESGGGLVQPGRSLRLSCAASGFTFSNAWMHWVRQAPGKGLEWVAQIKGKSQNYATYYAESVKGRFTISRADSKNSIYLQMNSLKTEDTAVYYCRYVHYGAYYGVDIWGQGTTVTVSS VL: DIVMTQSPLSLPVTPGEPASISCRSSQSLVHSNRNTYLHWYQQKPGQAPRLLIYKVSNRFSGVPDRFSGSGSGTDFTLKISRVEAEDVGVYYCGQGTQVPYTFGQGTKLEIKR
36.9 nM	TR01H016-E22Hh/none-Hi-Kn010G3/L0000-k0 (antibody, V domains shown, one-arm) VH: QVQLVESGGGLVQPGRSLRLSCAASGFTFSNAWMHWVRQAPGKGLEWVAQIKGKSNNYATYYAESVKGRFTISRADSKNSIYLQMNSLKTEDTAVYYCRYVHYSYSYGVDIWGQGTTVTVSS VL: DIVMTQSPLSLPVTPGEPASISCRSSQSLVHSNRNTYLHWYQQKPGQAPRLLIYKVSNRFSGVPDRFSGSGSGTDFTLKISRVEAEDVGVYYCGQGTQVPYTFGQGTKLEIKR
